Results on ten molecules are retold here after US20220306695A1, “COMPSTATIN ANALOGUES AND THEIR MEDICAL USES” (priority 2019, published 2022).

This assay deals with Human C3 (human, UniProt P01024 23-1663). Put plainly: cell-based or functional assay.

Positions of bridges follow the written chain, without caps; N, C: chain ends.

Chain of Human C3 (P01024 23-1663 limits assumed): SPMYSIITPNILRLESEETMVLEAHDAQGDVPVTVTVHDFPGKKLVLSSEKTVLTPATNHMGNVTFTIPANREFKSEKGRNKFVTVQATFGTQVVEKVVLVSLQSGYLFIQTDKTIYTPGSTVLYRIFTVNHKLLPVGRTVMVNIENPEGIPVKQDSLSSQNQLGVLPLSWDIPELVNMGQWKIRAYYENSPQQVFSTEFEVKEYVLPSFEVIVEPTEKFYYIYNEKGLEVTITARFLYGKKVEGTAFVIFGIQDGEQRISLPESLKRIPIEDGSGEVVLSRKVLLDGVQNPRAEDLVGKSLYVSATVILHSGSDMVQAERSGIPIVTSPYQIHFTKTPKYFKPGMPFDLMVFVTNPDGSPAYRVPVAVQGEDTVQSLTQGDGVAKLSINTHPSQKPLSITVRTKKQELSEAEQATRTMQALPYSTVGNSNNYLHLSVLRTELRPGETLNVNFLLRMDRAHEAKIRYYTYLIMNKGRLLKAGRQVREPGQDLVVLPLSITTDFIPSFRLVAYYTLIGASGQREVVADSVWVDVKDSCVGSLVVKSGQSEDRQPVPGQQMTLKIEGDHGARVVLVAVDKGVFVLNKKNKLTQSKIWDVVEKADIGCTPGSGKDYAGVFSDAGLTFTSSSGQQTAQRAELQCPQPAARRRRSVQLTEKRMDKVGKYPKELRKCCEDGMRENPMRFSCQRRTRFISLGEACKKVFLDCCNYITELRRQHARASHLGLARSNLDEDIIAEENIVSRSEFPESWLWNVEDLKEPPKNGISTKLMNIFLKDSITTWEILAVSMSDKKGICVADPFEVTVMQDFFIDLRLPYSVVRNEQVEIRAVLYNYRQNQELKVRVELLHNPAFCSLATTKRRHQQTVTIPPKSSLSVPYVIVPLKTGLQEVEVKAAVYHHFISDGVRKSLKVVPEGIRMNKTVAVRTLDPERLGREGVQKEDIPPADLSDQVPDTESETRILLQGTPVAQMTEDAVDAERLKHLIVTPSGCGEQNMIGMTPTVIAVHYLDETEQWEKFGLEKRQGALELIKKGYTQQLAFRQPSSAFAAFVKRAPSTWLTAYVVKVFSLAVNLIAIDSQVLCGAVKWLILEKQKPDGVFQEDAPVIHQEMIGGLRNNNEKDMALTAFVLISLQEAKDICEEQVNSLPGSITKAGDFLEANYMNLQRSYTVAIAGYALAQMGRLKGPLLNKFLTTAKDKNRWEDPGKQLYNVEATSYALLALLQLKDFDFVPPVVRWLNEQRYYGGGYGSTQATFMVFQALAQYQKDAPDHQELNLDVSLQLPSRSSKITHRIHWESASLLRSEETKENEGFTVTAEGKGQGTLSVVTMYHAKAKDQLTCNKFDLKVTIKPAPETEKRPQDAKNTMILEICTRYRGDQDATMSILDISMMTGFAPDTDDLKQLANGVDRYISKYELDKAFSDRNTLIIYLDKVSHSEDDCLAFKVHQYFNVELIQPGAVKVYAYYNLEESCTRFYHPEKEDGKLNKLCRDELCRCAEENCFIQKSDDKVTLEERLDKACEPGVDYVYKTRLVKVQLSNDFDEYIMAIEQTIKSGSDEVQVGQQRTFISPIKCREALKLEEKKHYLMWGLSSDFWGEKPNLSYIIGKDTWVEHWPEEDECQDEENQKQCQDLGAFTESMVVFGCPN

B1: Compound 17 (peptide)
peptide: Ac-ICIWQDWGDHRCT-NH2
modifications: disulfide 2-12
SMILES: CC[C@H](C)[C@H](NC(C)=O)C(=O)N[C@H]1CSSC[C@@H](C(=O)N[C@H](C(N)=O)[C@@H](C)O)NC(=O)[C@H](CCCNC(=N)N)NC(=O)[C@H](Cc2c[nH]cn2)NC(=O)[C@H](CC(=O)O)NC(=O)CNC(=O)[C@H](Cc2c[nH]c3ccccc23)NC(=O)[C@H](CC(=O)O)NC(=O)[C@H](CCC(N)=O)NC(=O)[C@H](Cc2c[nH]c3ccccc23)NC(=O)[C@H]([C@@H](C)CC)NC1=O
Take B1: the “IC50[nM], inhibition of hemolysis” value is under 100 nM.

B2: Compound 30 (peptide)
peptide: Ac-EGEICIWQDWGEHRCT-NH2
modifications: disulfide 5-15
SMILES: CC[C@H](C)[C@@H]1NC(=O)[C@@H](NC(=O)[C@@H](NC(=O)[C@H](CCC(=O)O)NC(=O)CNC(=O)[C@H](CCC(=O)O)NC(C)=O)[C@@H](C)CC)CSSC[C@@H](C(=O)N[C@H](C(N)=O)[C@@H](C)O)NC(=O)[C@H](CCCNC(=N)N)NC(=O)[C@H](Cc2c[nH]cn2)NC(=O)[C@H](CCC(=O)O)NC(=O)CNC(=O)[C@H](Cc2c[nH]c3ccccc23)NC(=O)[C@H](CC(=O)O)NC(=O)[C@H](CCC(N)=O)NC(=O)[C@H](Cc2c[nH]c3ccccc23)NC1=O
For B2, the “IC50[nM], inhibition of hemolysis” value is under 100 nM.

B3: Compound 32 (peptide)
peptide: Ac-SEICIWQDWGEHRCTEA-NH2
modifications: disulfide 4-14
SMILES: CC[C@H](C)[C@@H]1NC(=O)[C@@H](NC(=O)[C@@H](NC(=O)[C@H](CCC(=O)O)NC(=O)[C@H](CO)NC(C)=O)[C@@H](C)CC)CSSC[C@@H](C(=O)N[C@H](C(=O)N[C@@H](CCC(=O)O)C(=O)N[C@@H](C)C(N)=O)[C@@H](C)O)NC(=O)[C@H](CCCNC(=N)N)NC(=O)[C@H](Cc2c[nH]cn2)NC(=O)[C@H](CCC(=O)O)NC(=O)CNC(=O)[C@H](Cc2c[nH]c3ccccc23)NC(=O)[C@H](CC(=O)O)NC(=O)[C@H](CCC(N)=O)NC(=O)[C@H](Cc2c[nH]c3ccccc23)NC1=O
Regarding B3, the “IC50[nM], inhibition of hemolysis” value was under 100 nM.

B4: Compound 26 (peptide)
peptide: Ac-ICIWQDWGEHRCTE-NH2
modifications: disulfide 2-12
SMILES: CC[C@H](C)[C@H](NC(C)=O)C(=O)N[C@H]1CSSC[C@@H](C(=O)N[C@H](C(=O)N[C@@H](CCC(=O)O)C(N)=O)[C@@H](C)O)NC(=O)[C@H](CCCNC(=N)N)NC(=O)[C@H](Cc2c[nH]cn2)NC(=O)[C@H](CCC(=O)O)NC(=O)CNC(=O)[C@H](Cc2c[nH]c3ccccc23)NC(=O)[C@H](CC(=O)O)NC(=O)[C@H](CCC(N)=O)NC(=O)[C@H](Cc2c[nH]c3ccccc23)NC(=O)[C@H]([C@@H](C)CC)NC1=O
Regarding B4, the “IC50[nM], inhibition of hemolysis” value is under 100 nM.

B5: Compound 31 (peptide)
peptide: Ac-ESEICIWQDWGEHRCT-NH2
modifications: disulfide 5-15
SMILES: CC[C@H](C)[C@@H]1NC(=O)[C@@H](NC(=O)[C@@H](NC(=O)[C@H](CCC(=O)O)NC(=O)[C@H](CO)NC(=O)[C@H](CCC(=O)O)NC(C)=O)[C@@H](C)CC)CSSC[C@@H](C(=O)N[C@H](C(N)=O)[C@@H](C)O)NC(=O)[C@H](CCCNC(=N)N)NC(=O)[C@H](Cc2c[nH]cn2)NC(=O)[C@H](CCC(=O)O)NC(=O)CNC(=O)[C@H](Cc2c[nH]c3ccccc23)NC(=O)[C@H](CC(=O)O)NC(=O)[C@H](CCC(N)=O)NC(=O)[C@H](Cc2c[nH]c3ccccc23)NC1=O
As for B5, the “IC50[nM], inhibition of hemolysis” value was under 100 nM.

B6: Compound 25 (peptide)
peptide: Ac-ICIWQDWGEHRCTEA-NH2
modifications: disulfide 2-12
SMILES: CC[C@H](C)[C@H](NC(C)=O)C(=O)N[C@H]1CSSC[C@@H](C(=O)N[C@H](C(=O)N[C@@H](CCC(=O)O)C(=O)N[C@@H](C)C(N)=O)[C@@H](C)O)NC(=O)[C@H](CCCNC(=N)N)NC(=O)[C@H](Cc2c[nH]cn2)NC(=O)[C@H](CCC(=O)O)NC(=O)CNC(=O)[C@H](Cc2c[nH]c3ccccc23)NC(=O)[C@H](CC(=O)O)NC(=O)[C@H](CCC(N)=O)NC(=O)[C@H](Cc2c[nH]c3ccccc23)NC(=O)[C@H]([C@@H](C)CC)NC1=O
B6: the “IC50[nM], inhibition of hemolysis” value is under 100 nM.

B7: Compound 27 (peptide)
peptide: Ac-ICIWQDWGEHRCEGE-NH2
modifications: disulfide 2-12
SMILES: CC[C@H](C)[C@H](NC(C)=O)C(=O)N[C@H]1CSSC[C@@H](C(=O)N[C@@H](CCC(=O)O)C(=O)NCC(=O)N[C@@H](CCC(=O)O)C(N)=O)NC(=O)[C@H](CCCNC(=N)N)NC(=O)[C@H](Cc2c[nH]cn2)NC(=O)[C@H](CCC(=O)O)NC(=O)CNC(=O)[C@H](Cc2c[nH]c3ccccc23)NC(=O)[C@H](CC(=O)O)NC(=O)[C@H](CCC(N)=O)NC(=O)[C@H](Cc2c[nH]c3ccccc23)NC(=O)[C@H]([C@@H](C)CC)NC1=O
As for B7, the “IC50[nM], inhibition of hemolysis” value is under 100 nM.

B8: Compound 22 (peptide)
peptide: Ac-ICIWQDWGEHRCE-NH2
modifications: disulfide 2-12
SMILES: CC[C@H](C)[C@H](NC(C)=O)C(=O)N[C@H]1CSSC[C@@H](C(=O)N[C@@H](CCC(=O)O)C(N)=O)NC(=O)[C@H](CCCNC(=N)N)NC(=O)[C@H](Cc2c[nH]cn2)NC(=O)[C@H](CCC(=O)O)NC(=O)CNC(=O)[C@H](Cc2c[nH]c3ccccc23)NC(=O)[C@H](CC(=O)O)NC(=O)[C@H](CCC(N)=O)NC(=O)[C@H](Cc2c[nH]c3ccccc23)NC(=O)[C@H]([C@@H](C)CC)NC1=O
B8: the “IC50[nM], inhibition of hemolysis” value was under 100 nM.

B9: Compound 18 (peptide)
peptide: Ac-ICIWQDWGRHRCT-NH2
modifications: disulfide 2-12
SMILES: CC[C@H](C)[C@H](NC(C)=O)C(=O)N[C@H]1CSSC[C@@H](C(=O)N[C@H](C(N)=O)[C@@H](C)O)NC(=O)[C@H](CCCNC(=N)N)NC(=O)[C@H](Cc2c[nH]cn2)NC(=O)[C@H](CCCNC(=N)N)NC(=O)CNC(=O)[C@H](Cc2c[nH]c3ccccc23)NC(=O)[C@H](CC(=O)O)NC(=O)[C@H](CCC(N)=O)NC(=O)[C@H](Cc2c[nH]c3ccccc23)NC(=O)[C@H]([C@@H](C)CC)NC1=O
For the molecule B9, the “IC50[nM], inhibition of hemolysis” value was under 100 nM.

B10: Compound 33 (peptide)
peptide: Ac-EICIWQDWGEHRCTE-NH2
modifications: disulfide 3-13
SMILES: CC[C@H](C)[C@@H]1NC(=O)[C@@H](NC(=O)[C@@H](NC(=O)[C@H](CCC(=O)O)NC(C)=O)[C@@H](C)CC)CSSC[C@@H](C(=O)N[C@H](C(=O)N[C@@H](CCC(=O)O)C(N)=O)[C@@H](C)O)NC(=O)[C@H](CCCNC(=N)N)NC(=O)[C@H](Cc2c[nH]cn2)NC(=O)[C@H](CCC(=O)O)NC(=O)CNC(=O)[C@H](Cc2c[nH]c3ccccc23)NC(=O)[C@H](CC(=O)O)NC(=O)[C@H](CCC(N)=O)NC(=O)[C@H](Cc2c[nH]c3ccccc23)NC1=O
Consider B10, for which the “IC50[nM], inhibition of hemolysis” value is under 100 nM.
